Patent publication US20210017275A1 (Alector, published 2021)
Blank lines part the entries; values can stand above or below the substance they belong to.

Tests used:
[1] = target: human Siglec-5 expressed on human primary cells (human) (UniProt O15389); test: flow cytometry, human primary neutrophils, 10 ug/ml mAb
[2] = target: human Siglec-5 expressed on human primary cells (human) (UniProt O15389); test: flow cytometry, human primary macrophages, 10 ug/ml mAb
[3] = target: T1, Human Siglec 5, Fc chimera (R&D Systems) (human, UniProt O15389 17-434, limits assumed); test: RBC adhesion to plate-bound Siglec-5-Fc, 0.3 ug/ml mAb, percent of binding without antibody
T1 construct: Bought or recombinant Fc fusion; also called recombinant Siglec-5-Fc; not shown: Fc part
T1 sequence: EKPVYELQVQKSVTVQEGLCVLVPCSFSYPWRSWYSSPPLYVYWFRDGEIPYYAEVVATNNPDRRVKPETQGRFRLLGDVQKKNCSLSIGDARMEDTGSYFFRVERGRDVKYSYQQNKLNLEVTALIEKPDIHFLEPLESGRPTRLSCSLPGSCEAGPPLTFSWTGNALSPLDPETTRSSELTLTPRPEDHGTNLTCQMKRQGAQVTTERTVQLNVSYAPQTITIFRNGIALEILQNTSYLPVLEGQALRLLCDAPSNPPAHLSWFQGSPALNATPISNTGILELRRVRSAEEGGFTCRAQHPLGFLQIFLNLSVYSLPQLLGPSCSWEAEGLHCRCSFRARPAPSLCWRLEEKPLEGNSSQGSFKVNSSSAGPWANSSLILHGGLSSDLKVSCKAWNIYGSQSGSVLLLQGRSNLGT

[4] = target: human Siglec-5 expressed on human primary cells (human) (UniProt O15389); test: flow cytometry, human primary monocytes, 10 ug/ml mAb
[5] = target: human Siglec-5 expressed on human primary cells (human) (UniProt O15389); test: flow cytometry, human primary dendritic cells, 10 ug/ml mAb
[6] = target: T1, Human Siglec 5, Fc chimera (R&D Systems); test: RBC adhesion to plate-bound Siglec-5-Fc, 0.3 ug/ml isotype control, percent of binding without antibody
[7] = target: human Siglec-5 expressed on human primary cells (human) (UniProt O15389); test: flow cytometry, human primary dendritic cells, isotype control
[8] = target: human Siglec-5 expressed on human primary cells (human) (UniProt O15389); test: flow cytometry, human primary macrophages, isotype control
[9] = target: T1, Human Siglec 5, Fc chimera (R&D Systems); test: RBC adhesion to plate-bound Siglec-5-Fc, 1.0 ug/ml isotype control, percent of binding without antibody
[10] = target: human Siglec-5 expressed on human primary cells (human) (UniProt O15389); test: flow cytometry, human primary monocytes, isotype control
[11] = target: human Siglec-5 expressed on human primary cells (human) (UniProt O15389); test: flow cytometry, human primary neutrophils, isotype control
[12] = target: human Siglec-5 expressed on human primary cells (human) (UniProt O15389); test: flow cytometry, human primary dendritic cells, secondary antibody only (no primary antibody), background control
[13] = target: human Siglec-5 expressed on human primary cells (human) (UniProt O15389); test: flow cytometry, human primary neutrophils, secondary antibody only (no primary antibody), background control
[14] = target: human Siglec-5 expressed on human primary cells (human) (UniProt O15389); test: flow cytometry, human primary monocytes, secondary antibody only (no primary antibody), background control
[15] = target: human Siglec-5 expressed on human primary cells (human) (UniProt O15389); test: flow cytometry, human primary macrophages, secondary antibody only (no primary antibody), background control

% Positive [1]: 99.2%
MFI [1]: 383
% Positive [2]: 96.9%
MFI [2]: 806
Percent RBC Binding to Siglec-5 [3]: 41.5%
% Positive [4]: 98.8%
MFI [4]: 463
% Positive [5]: 94.8%
MFI [5]: 641
Substance: commercially available anti-Siglec-5 antibody, clone 194128 (R&D Systems)

Percent RBC Binding to Siglec-5 [6]: 100%
% Positive [7]: 6.7%
MFI [7]: 98
% Positive [8]: 21.9%
MFI [8]: 305
Percent RBC Binding to Siglec-5 [9]: 102%
% Positive [10]: 10.7%
MFI [10]: 126
% Positive [11]: 1.3%
MFI [11]: 53.7
Substance: mouse IgG1 isotype control antibody

% Positive [12]: 2.1%
MFI [12]: 87
% Positive [13]: 3.42%
MFI [13]: 62.1
% Positive [14]: 8.2%
MFI [14]: 104
% Positive [15]: 5.4%
MFI [15]: 221
Substance: PE-conjugated secondary antibody
